As for MMP20, in the data set on Probe #117, the “fluorescence read of probe cleavage, recombinant protease assay” value (“fluorescence read of probe cleavage” for short) is “Probe #117 sensed MMP2 and MMP20 (FIG. 55D)”.
On to MMP8, for which the “fluorescence read of probe cleavage” value with Probe #417 was “Probe #417 sensed MMP1, MMP2, MMP8, MMP13, and MMP14 (FIG. 55C)”.
Take DPP4: the “fluorescence read of probe cleavage” value in the data set on Probe #411 is “Probe #411 sensed DPP4 (FIG. 55B)”; with Probe #554, “Probe #554 sensed MMP1, MMP2, MMP13, MMP14, and DPP4 (FIG. 55F)”; with Probe #349 it was “Probe #349 sensed MMP2 and DPP4 (FIG. 55A)”; with Probe #387, “Probe #387 sensed DPP4 (FIG. 55G)”.
Consider MMP13, for which the “fluorescence read of probe cleavage” value was “Probe #554 sensed MMP1, MMP2, MMP13, MMP14, and DPP4 (FIG. 55F)” in the data set with Probe #554; “Probe #263 sensed MMP13 (FIG. 55E)” in the data set on Probe #263; “Probe #417 sensed MMP1, MMP2, MMP8, MMP13, and MMP14 (FIG. 55C)” in the data set with Probe #417.
For the substance MMP14, the “fluorescence read of probe cleavage” value is “Probe #554 sensed MMP1, MMP2, MMP13, MMP14, and DPP4 (FIG. 55F)” with Probe #554; “Probe #417 sensed MMP1, MMP2, MMP8, MMP13, and MMP14 (FIG. 55C)” with Probe #417.
Consider MMP1, for which the “fluorescence read of probe cleavage” value with Probe #554 was “Probe #554 sensed MMP1, MMP2, MMP13, MMP14, and DPP4 (FIG. 55F)”; with Probe #417 it was “Probe #417 sensed MMP1, MMP2, MMP8, MMP13, and MMP14 (FIG. 55C)”.
With MMP2, the “fluorescence read of probe cleavage” value with Probe #554 is “Probe #554 sensed MMP1, MMP2, MMP13, MMP14, and DPP4 (FIG. 55F)”; in the data set on Probe #349 it was “Probe #349 sensed MMP2 and DPP4 (FIG. 55A)”; in the data set on Probe #417, “Probe #417 sensed MMP1, MMP2, MMP8, MMP13, and MMP14 (FIG. 55C)”; in the data set with Probe #117, “Probe #117 sensed MMP2 and MMP20 (FIG. 55D)”.

(Values after patent US20250110130.)

Chain of MMP2 (P08253 110-660): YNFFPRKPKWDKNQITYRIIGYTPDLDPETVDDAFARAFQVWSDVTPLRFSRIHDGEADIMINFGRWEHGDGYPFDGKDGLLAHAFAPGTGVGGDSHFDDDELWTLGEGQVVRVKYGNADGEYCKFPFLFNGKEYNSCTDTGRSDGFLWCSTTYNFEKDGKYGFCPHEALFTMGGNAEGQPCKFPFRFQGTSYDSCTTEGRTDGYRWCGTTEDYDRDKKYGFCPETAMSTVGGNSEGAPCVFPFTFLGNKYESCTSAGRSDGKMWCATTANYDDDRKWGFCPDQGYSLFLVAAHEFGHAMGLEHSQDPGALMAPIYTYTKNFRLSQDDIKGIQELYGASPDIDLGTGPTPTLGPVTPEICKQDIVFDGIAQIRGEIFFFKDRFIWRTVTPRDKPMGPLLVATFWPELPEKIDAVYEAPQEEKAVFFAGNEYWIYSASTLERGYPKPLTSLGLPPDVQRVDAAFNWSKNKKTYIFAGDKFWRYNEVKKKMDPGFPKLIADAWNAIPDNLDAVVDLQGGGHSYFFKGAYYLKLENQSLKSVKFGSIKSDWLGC
Chain of MMP1 (P03956 100-469): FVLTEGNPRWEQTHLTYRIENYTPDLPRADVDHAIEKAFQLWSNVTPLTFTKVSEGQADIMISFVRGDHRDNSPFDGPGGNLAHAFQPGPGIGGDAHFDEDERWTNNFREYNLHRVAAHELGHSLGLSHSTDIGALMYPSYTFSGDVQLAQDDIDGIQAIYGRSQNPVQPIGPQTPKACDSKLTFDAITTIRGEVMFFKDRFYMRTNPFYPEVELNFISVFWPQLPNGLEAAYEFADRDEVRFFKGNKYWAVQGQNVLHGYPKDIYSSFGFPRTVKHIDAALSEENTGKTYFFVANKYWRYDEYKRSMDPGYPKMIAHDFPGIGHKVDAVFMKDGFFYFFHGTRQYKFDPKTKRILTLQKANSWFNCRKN
Chain of MMP20 (O60882 108-483): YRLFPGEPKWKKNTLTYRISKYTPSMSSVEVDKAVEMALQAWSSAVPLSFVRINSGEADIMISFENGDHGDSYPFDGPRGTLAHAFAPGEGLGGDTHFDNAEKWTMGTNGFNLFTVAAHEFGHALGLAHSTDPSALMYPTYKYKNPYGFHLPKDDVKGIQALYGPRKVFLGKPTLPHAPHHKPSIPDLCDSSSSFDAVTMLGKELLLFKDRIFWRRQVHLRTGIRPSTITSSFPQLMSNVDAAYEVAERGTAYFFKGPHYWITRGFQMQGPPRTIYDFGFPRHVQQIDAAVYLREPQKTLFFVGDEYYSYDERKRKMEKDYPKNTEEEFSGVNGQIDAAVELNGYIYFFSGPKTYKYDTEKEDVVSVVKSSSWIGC
